From the nanobody polyreactivity screen of Harvey et al. (2022)

Assay: yeast display, Sf9 membrane polyspecificity reagent, FACS + sequencing; frameworks hold sequencing errors
Outline: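 Nanobodies from a synthetic yeast display library (Saccharomyces cerevisiae BJ5465), induced 36–48 hours with galactose, were stained 1 hour at 4 °C with 10% biotinylated, detergent-solubilized Sf9 membrane reagent, enriched on streptavidin microbeads, then FACS-sorted. Anti-HA (expression) and streptavidin (reagent binding) fluorescence set low and high (top ~1%) gates. Polyreactivity labels come from the gate of origin. Genes were colony-PCR amplified, MiSeq 2 × 250 sequenced and filtered by CDR length.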

Sequence | polyreactivity (PSR sort gate)
QVQLVESGGGLVQAGGSLRLSCAASGNTFPINAMGWYRQAPGKERELVATITRPGGSTYYADSVKARFTISRDNAKNTVYLQMNSLKPEDTAVYYCAAANYTYASRWYDYWGQGTQVTVSS | low polyreactivity
QVQLVESGGGLVQAGGSLRLSCAASGSIFQGYAMGWYRQAPGKERELVAGITSSGGRTRYADSVKGRFTISRDNAKNTVFLQMNSLKPEDTAVYYCAADYVRHIGYNYWGQGTQVTVSS | high polyreactivity
QVQLVESGGGLVQAGGSLRLSCAASGITFRYFAMGWYRQAPGKERELVAAITRSGSTTYADSVKGRFTISRDNAKNTVYLQMNSLKPEDTAVYYCAVDYYYLTGGVDYWGQGTQVTVSS | low polyreactivity
QVQLVESGGGLVQAGGSLRLICAASGSTFPSYAMGWYRQAPGKERELVAAITWSGDSTYYADSVKGRFTILRDNAKNTVYLQMNSLKPEDTAVYYCAKDGGYPVGVLGGDDMEYWGQGTQVTVSS | low polyreactivity
QVQLVESGGGIVQAGGSLRLSCAASGLIFPWTYAMGWYRQAHGKEREFVAAITSSDGSTYYADSVKGRFTISRDNAKNTVYLQMNSLKPEDTAVYYCAAVGWDYDWDYYYWGQGTQVTVSS | high polyreactivity
QVQLVESGGGLVQAGGSLRLSCAASGRTFVRYAMGWYRQAPAKERELVAVNSRRGGSTYYADSVKGRFTISRDNAKNTVYLQMNSLKPVDTAVYYFAADYVRSKYDYWGQGTQVTVSS | high polyreactivity
QVQLVESGGGLVQAGGSLRLSCAASGRIFARNAMGWYRQAPGKERELVAAISWSGGRTYYADSVKGRFTISRDNAKNTVYLQMNSLKPEDTAVYYCAADHYPWWAWEFDYWGQGTQVTVSS | low polyreactivity
QVQHVESGGGLVQAGGSLRLSCAASGRIFWGYEMGWYRQAAGKEREFVAALSSGGGRTYYADSVKGRFTISRDNAKNTVYLQMNSLKPDDSGVYYSNAELNWYYYIHLDYWGQGTQVTVSW | low polyreactivity
QFQLVESGGGLVQAGGSLRLTCAASGNIFADYAMGWYRQAPGKERELVAAISRGGITSYADSVKGRFTISRDNAKNTVYLQMNSRKPEDTAVYYCATVRYDVYDSLGFGYWGQGTQVTVSS | low polyreactivity
QVQLVESGGGLVQAGGSLRLSSAASGRIFLRNALGWYRQAPGKERESVAAITRGGSTNYADSVKGRFTISRDNAKNTVYLQMNSLKPEDTAVYYCNARYPVVRYDYWGQGTQVTVSS | high polyreactivity
QVQLVESGGGLVHAGGSLRLSCAASGFIFYYNAMGWYRHAPGKERELVAGISRSAGSTYYADSVKGRFTISRDNAKNSVYLQMNSLKPEDTAVDYCAARYLSYITGTSYYWGQVTQVTVSS | low polyreactivity
HVQLEDSGGGLVQAGGRLRITCAASGRSSETNDMGWYRQAPGKERELVAAISSSGGSTYYADSVKGRFTISRDNAKNTVYLQMNSLQPEDTAVYYCYAVYYRTVLKIGVYEYDYWGQGTQVTVSS | low polyreactivity
QVQLVESGGGLVQAGGSLLLSCAASGSIFFPNAMGWYRQAPGKERELVAAINWSGDSTYYADSVKGRFTISRDNAKNTVYLQMNSLKPVDTAVYSCNATYPWFDYDYWGQGTQVTVSS | low polyreactivity
QVQLVESGGGLVQAGGSLRLSSAASGRIFVAYAMGWYRQAPAKERELVAAITWSGTSTYADSVKGRFTISRDNAKNTVYLQMNSLKPEDTAVYYCAKKAIVSDQWDKYDYWGQGTQVTVSS | low polyreactivity
QVQLVESGGGLVQAGGSLRLSCAASGITFYINAMGWSRQAPRKERALLAGISSGGSTNYADSVKGRFTISRDNAKNTVYLQMNSLKPEDTAVYYCWVSRTYHLDYWGQGTQVTVSS | low polyreactivity
QVQLVESGGGLVQAGGSLRLSCAASGPISAIYDMGWDRQAPGKERELVASISGGTSTYYADSVKGRFTISRDNAKNTVYLQMNSLKPEDTAVYYCNAEASSYHGVEDEYDYWGQGTQVTVSS | low polyreactivity
QVQLVESGGGLVQAGGSLRLSCAASGRTFEGNAMGWYRQAPGKERELVAAITSGGRTNYADSVKGRFTISRDNAKNTVYLQMNSLKPEDTAVYYCAVETRDRSTYFPGQAYDYWGQGTQVTVSS | low polyreactivity
